Results published in US12698494.
Substitutions are numbered along the chain they refer to. Names may count otherwise.

T1: FRETS-VWF73 fluorogenic substrate, P04275
T1 chain: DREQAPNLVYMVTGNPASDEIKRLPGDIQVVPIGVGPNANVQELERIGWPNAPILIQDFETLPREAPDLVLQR

B1: ADAMTS13 variant NGLY7 (664EYGNLT669 to 664ENVTLT669; glycan shift from N667 to Y665) (protein)
chain: AAGGILHLELLVAVGPDVFQAHQEDTERYVLTNLNIGAELLRDPSLGAQFRVHLVKMVILTEPEGAPNITANLTSSLLSVCGWSQTINPEDDTDPGHADLVLYITRFDLELPDGNRQVRGVTQLGGACSPTWSCLITEDTGFDLGVTIAHEIGHSFGLEHDGAPGSGCGPSGHVMASDGAAPRAGLAWSPCSRRQLLSLLSAGRARCVWDPPRPQPGSAGHPPDAQPGLYYSANEQCRVAFGPKAVACTFAREHLDMCQALSCHTDPLDQSSCSRLLVPLLDGTECGVEKWCSKGRCRSLVELTPIAAVHGRWSSWGPRSPCSRSCGGGVVTRRRQCNNPRPAFGGRACVGADLQAEMCNTQACEKTQLEFMSQQCARTDGQPLRSSPGGASFYHWGAAVPHSQGDALCRHMCRAIGESFIMKRGDSFLDGTRCMPSGPREDGTLSLCVSGSCRTFGCDGRMDSQQVWDRCQVCGGDNSTCSPRKGSFTAGRAREYVTFLTVTPNLTSVYIANHRPLFTHLAVRIGGRYVVAGKMSISPNTTYPSLLEDGRVEYRVALTEDRLPRLEEIRIWGPLQEDADIQVYRRYGEENVTLTRPDITFTYFQPKPRQAWVWAAVRGPCSVSCGAGLRWVNYSCLDQARKELVETVQCQGSQQPPAWPEACVLEPCPPYWAVGDFGPCSASCGGGLRERPVRCVEAQGSLLKTLPPARCRAGAQQPAVALETCNPQPCPARWEVSEPSSCTSAGGAGLALENETCVPGADGLEAPVTEGPGSVDEKLPAPEPCVGMSCPPGWGHLDATSAGEKAPSPWGSIRTGAQAAHVWTPAAGSCSVSCGRGLMELRFLCMDSALRVPVQEELCGLASKPGSRREVCQAVPCPARWQYKLAACSVSCGRGVVRRILYCARAHGEDDGEEILLDTQCQGLPRPEPQEACSLEPCPPRWKVMSLGPCSASCGLGTARRSVACVQLDQGQDVEVDEAACAALVRPEASVPCLIADCTYRWHVGTWMECSVSCGDGIQRRRDTCLGPQAQAPVPADFCQHLPKPVTVRGCWAGPCVGQGTPSLVPHEEAAAPGRTTATPAGASLEWSQARGLLFSPAPQPRRLLPGPQENSVQSSACGRQHLEPTGTIDMRGPGQADCAVAIGRPLGEVVTLRVLESSLNCSAGDMLLLWGRLTWRKMCRKLLDMTFSSKTNTLVVRQRCGRPGGGVLLRYGSQLAPETFYRECDMQLFGPWGEIVSPSLSPATSNAGGCRLFINVAPHARIAIHALATNMGAGTEGANASYILIRDTHSLRTTAFHGQQVLYWESESSQAEMEFSEGFLKAQASLRGQYWTLQSWVPEMQDPQSWKGKEGT
B2: ADAMTS13 variant NGLY8 (667NLTRP671 to 667LNVTA671; glycan shift from N667 to L668) (protein)
chain: B1 chain with N591Y, V592G, T593L, L594N, T595V, R596T, P597A
B3: ADAMTS13 variant NGLY3 + NGLY7 (607GNMSI611/664ENVTLT669) (protein)
chain: B1 chain with K534N
B4: ADAMTS13 variant NGLY3 + NGLY8 (607GNMSI611/667LNVTA671) (protein)
chain: B1 chain with K534N, N591Y, V592G, T593L, L594N, T595V, R596T, P597A
B5: ADAMTS13 variant NGLY3 plus L591A/R636A/L637A/L668A (protein)
chain: B1 chain with L517A, K534N, R562A, L563A, N591Y, V592G, T593N, L594A
B6: ADAMTS13 variant NGLY3 + R568A/Y665A (protein)
chain: B1 chain with R494A, K534N, N591A, V592G, T593N
B7: ADAMTS13 variant L591A/R636A/L637A/L668A (protein)
chain: B1 chain with L517A, R562A, L563A, N591Y, V592G, T593N, L594A
B8: ADAMTS13 variant R568A/Y665A (protein)
chain: B1 chain with R494A, N591A, V592G, T593N

biological target: Von Willebrand Factor (VWF) multimers, P04275

Protein | Ability to process VWF multimers under denaturing conditions | vortex assay: processing of VWF multimers under shear stress
B1 | +++++ | NGLY7 was clearly capable of processing the large VWF multimers
B2 | ++ | NGLY8 displayed a reduced ability to process VWF multimers when compared to NGLY3 and NGLY7
B3 | +++++ | combination of NGLY3/NGLY7 retained proteolytic activity towards multimeric VWF
B4 | ++ | Combinations of NGLY3/NGLY8 also revealed a reduced ability to process VWF multimers
B5 | ++ | Combinations of NGLY3 plus L591A/R636A/L637A/L668A and NGLY3 plus R568A/Y665A efficiently processed VWF multimers
B6 | ++ | Combinations of NGLY3 plus L591A/R636A/L637A/L668A and NGLY3 plus R568A/Y665A efficiently processed VWF multimers
B7 | ++ | the proteolytic activity of R568A/Y665A and the L591A/R636A/L637A/L668A variants were reduced when compared to wild type ADAMTS13
B8 | ++ | the proteolytic activity of R568A/Y665A and the L591A/R636A/L637A/L668A variants were reduced when compared to wild type ADAMTS13

Biological target: T1, FRETS-VWF73 fluorogenic substrate, …

Protein | Activity level (% relative to wild type ADAMTS13) VWFFRETS73 (% relative to wild type ADAMTS13) | FRETS-VWF73 activity relative to wild-type ADAMTS13 (text value, differs from Table 4)
B1 | 125 | –
B2 | 76 | NGLY8 was 75% active when compared to wild-type ADAMTS13
B3 | 135 | NGLY3 plus NGLY7 was 125% active when compared to the wild type
B4 | 120 | NGLY3 plus NGLY8 was 75% active when compared to wild type ADAMTS13
B5 | 95 | –
B6 | 120 | –
B7 | 90 | –
B8 | 120 | –
